Test results taken from patent publication US20150147316A1 (Seagen, published 2015).

Experiments:
human CD33 [1] = target: T1, human CD33 (human, UniProt P20138 18-364); assay: cell-based or functional assay
human CD33 [2] = target: T1, human CD33; assay: cell-based or functional assay; remark: listed apart in the source
human CD33 [3] = target: T1, human CD33; assay: flow cytometry on HEL 92.1.7 AML cells

T1 sequence (P20138 18-364): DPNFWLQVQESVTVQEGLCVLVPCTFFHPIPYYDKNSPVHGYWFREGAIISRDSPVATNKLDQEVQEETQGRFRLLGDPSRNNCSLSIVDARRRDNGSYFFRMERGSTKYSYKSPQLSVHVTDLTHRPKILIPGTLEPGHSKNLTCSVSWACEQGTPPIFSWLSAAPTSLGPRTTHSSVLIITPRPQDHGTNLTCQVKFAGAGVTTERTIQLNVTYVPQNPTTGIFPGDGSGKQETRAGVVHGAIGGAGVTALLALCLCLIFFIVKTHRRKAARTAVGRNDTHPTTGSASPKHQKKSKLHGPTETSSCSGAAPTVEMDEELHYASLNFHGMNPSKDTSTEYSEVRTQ

B1: m2H12-SGD-1269 (other)
VH: QVQLQQSGPELVRPGTFVKISCKASGYTFTNYDINWVNQRPGQGLEWIGWIYPGDGSTKYNEKFKAKATLTADKSSSTAYLQLNNLTSENSAVYFCASGYEDAMDYWGQGTSVTVSS
VL: DIKMTQSPSSMYASLGERVIINCKASQDINSYLSWFQQKPGKSPKTLIYRANRLVDGVPSRFSGSGSGQDYSLTISSLEYEDMGIYYCLQYDEFPLTFGAGTKLELK
modifications: conjugated to drug-linker SGD-1269 (mcMMAF); sites and load not stated for the murine antibody
Question: For B1, which “IC50, cytotoxicity on HL-60 cells (96 h, CelltiterGlo)” value (from here on “IC50, cytotoxicity on HL-60 cells”) (human CD33 [1]) is on record?
Answer: 1.3 ng/mL

B2: h2H12EC-SGD-1910 (other)
VH: QVQLVQSGAEVKKPGASVKVSCKASGYTFTNYDINWVRQAPGQGLEWIGWIYPGDGSTKYNEKFKAKATLTADTSTSTAYMELRSLRSDDTAVYYCASGYEDAMDYWGQGTTVTVSS
VL: DIQMTQSPSSLSASVGDRVTINCKASQDINSYLSWFQQKPGKAPKTLIYRANRLVDGVPSRFSGSGSGQDYTLTISSLQPEDFATYYCLQYDEFPLTFGGGTKVEIK
modifications: drug-linker SGD-1910 (pyrrolobenzodiazepine dimer) on the cysteine introduced at position 239 of the IgG1 chain, average about 2 drugs per antibody
Question: For B2, which “IC50, cytotoxicity on HEL 92.1.7 cells (96 h, CelltiterGlo)” value (human CD33 [1]) is on record?
Answer: ~12.9 ng/mL

Question: And the “IC50, cytotoxicity on HL-60 cells” value (human CD33 [1])?
Answer: ~1.6 ng/mL

Question: And the “mean IC50 over 7 of 7 AML cell lines, cytotoxicity” value (human CD33 [1])?
Answer: 20.4 ng/mL

Question: What about the “IC50 (ng/mL), cytotoxicity on HEL 92.1.7 cells” value (human CD33 [2]) of the same binder?
Answer: 7 ng/mL

Question: And the “IC50 (ng/mL), cytotoxicity on HL-60 cells” value (human CD33 [2])?
Answer: 1 ng/mL

Question: What about the “IC50 (ng/mL), cytotoxicity on KG-1 cells” value (human CD33 [2]) of the same binder?
Answer: 3 ng/mL

Question: What about the “IC50 (ng/mL), cytotoxicity on MV4-11 cells” value (human CD33 [2]) of the same binder?
Answer: 0.1 ng/mL

Question: And the “IC50 (ng/mL), cytotoxicity on TF1-α cells” value (human CD33 [2])?
Answer: 49 ng/mL

Question: And the “IC50 (ng/mL), cytotoxicity on TF-1 cells” value (human CD33 [2])?
Answer: 61 ng/mL

Question: And the “IC50 (ng/mL), cytotoxicity on U937 cells” value (human CD33 [2])?
Answer: 22 ng/mL

B3: HAcL (antibody, V domains shown)
VH: QVQLVQSGAEVKKPGASVKVSCKASGYTFTNYDINWVRQAPGQGLEWMGWIYPGDGSTKYNEKFKARVTMTTDTSTSTAYMELRSLRSDDTAVYYCARGYEDAMDYWGQGTTVTVSS
VL: DIKMTQSPSSMYASLGERVIINCKASQDINSYLSWFQQKPGKSPKTLIYRANRLVDGVPSRFSGSGSGQDYSLTISSLEYEDMGIYYCLQYDEFPLTFGAGTKLELK
notes: Hybrid of humanized heavy chain HA and the chimeric light chain (murine VL, human constant region)
Question: Does B3 bind (human CD33 [3])?
Answer: no binding (tested: 0.03 nM to 600 nM (methods))

B4: h2H12-SGD-1269 (other)
VH: QVQLVQSGAEVKKPGASVKVSCKASGYTFTNYDINWVRQAPGQGLEWIGWIYPGDGSTKYNEKFKAKATLTADTSTSTAYMELRSLRSDDTAVYYCASGYEDAMDYWGQGTTVTVSS
VL: DIQMTQSPSSLSASVGDRVTINCKASQDINSYLSWFQQKPGKAPKTLIYRANRLVDGVPSRFSGSGSGQDYTLTISSLQPEDFATYYCLQYDEFPLTFGGGTKVEIK
modifications: drug-linker SGD-1269 (mcMMAF) on thiol groups of interchain disulfide cysteines, average about 4 drugs per antibody
Question: For B4, which “IC50, cytotoxicity on HL-60 cells” value (human CD33 [1]) is on record?
Answer: 5.3 ng/mL

Question: What about the “mean IC50 for responsive AML cell lines (4 of 7), cytotoxicity” value (human CD33 [1]) of the same binder?
Answer: 72.8 ng/mL

Question: What about the “IC50 (ng/mL), cytotoxicity on HEL 92.1.7 cells” value (human CD33 [2]) of the same binder?
Answer: > 1000 ng/mL

Question: What about the “IC50 (ng/mL), cytotoxicity on HL-60 cells” value (human CD33 [2]) of the same binder?
Answer: 2 ng/mL

Question: And the “IC50 (ng/mL), cytotoxicity on KG-1 cells” value (human CD33 [2])?
Answer: 270 ng/mL

Question: And the “IC50 (ng/mL), cytotoxicity on MV4-11 cells” value (human CD33 [2])?
Answer: 0.1 ng/mL

Question: What about the “IC50 (ng/mL), cytotoxicity on TF1-α cells” value (human CD33 [2]) of the same binder?
Answer: > 1000 ng/mL

Question: What about the “IC50 (ng/mL), cytotoxicity on TF-1 cells” value (human CD33 [2]) of the same binder?
Answer: > 1000 ng/mL

Question: And the “IC50 (ng/mL), cytotoxicity on U937 cells” value (human CD33 [2])?
Answer: 19 ng/mL

B5: HHcL (antibody, V domains shown)
VH: QVQLVQSGAEVKKPGASVKVSCKASGYTFTNYDINWVRQAPGQGLEWMGWIYPGDGSTKYNEKFKARVTMTTDTSTSTAYMELSSLTSDDTAVYYCARGYEDAMDYWGQGTTVTVSS
VL: DIKMTQSPSSMYASLGERVIINCKASQDINSYLSWFQQKPGKSPKTLIYRANRLVDGVPSRFSGSGSGQDYSLTISSLEYEDMGIYYCLQYDEFPLTFGAGTKLELK
notes: Hybrid of humanized heavy chain HH and the chimeric light chain (murine VL, human constant region)
Question: Does B5 bind (human CD33 [3])?
Answer: no binding (tested: 0.03 nM to 600 nM (methods))

B6: HGcL (antibody, V domains shown)
VH: QVQLVQSGAEVKKPGASVKVSCKASGYTFTNYDINWVRQAPGQGLEWMGWIYPGDGSTKYNEKFKAKATLTTDTSTSTAYMELRSLRSDDTAVYYCARGYEDAMDYWGQGTTVTVSS
VL: DIKMTQSPSSMYASLGERVIINCKASQDINSYLSWFQQKPGKSPKTLIYRANRLVDGVPSRFSGSGSGQDYSLTISSLEYEDMGIYYCLQYDEFPLTFGAGTKLELK
notes: Hybrid of humanized heavy chain HG and the chimeric light chain (murine VL, human constant region)
Question: Does B6 bind (human CD33 [3])?
Answer: no binding (tested: 0.03 nM to 600 nM (methods))

B7: HFcL (antibody, V domains shown)
VH: QVQLVQSGAEVKKPGASVKVSCKASGYTFTNYDINWVNQRPGQGLEWMGWIYPGDGSTKYNEKFKARVTMTTDTSTSTAYMELRSLRSDDTAVYYCARGYEDAMDYWGQGTTVTVSS
VL: DIKMTQSPSSMYASLGERVIINCKASQDINSYLSWFQQKPGKSPKTLIYRANRLVDGVPSRFSGSGSGQDYSLTISSLEYEDMGIYYCLQYDEFPLTFGAGTKLELK
notes: Hybrid of humanized heavy chain HF and the chimeric light chain (murine VL, human constant region)
Question: Does B7 bind (human CD33 [3])?
Answer: no binding (tested: 0.03 nM to 600 nM (methods))

B8: HBcL (antibody, V domains shown)
VH: QVQLVQSGAEVKKPGASVKVSCKASGYTFTNYDINWVRQAPGQGLEWMGWIYPGDGSTKYNEKFKARVTMTADTSTSTAYMELRSLRSDDTAVYYCARGYEDAMDYWGQGTTVTVSS
VL: DIKMTQSPSSMYASLGERVIINCKASQDINSYLSWFQQKPGKSPKTLIYRANRLVDGVPSRFSGSGSGQDYSLTISSLEYEDMGIYYCLQYDEFPLTFGAGTKLELK
notes: Hybrid of humanized heavy chain HB and the chimeric light chain (murine VL, human constant region)
Question: Does B8 bind (human CD33 [3])?
Answer: no binding (tested: 0.03 nM to 600 nM (methods))

B9: HDcL (antibody, V domains shown)
VH: QVQLVQSGAEVKKPGASVKVSCKASGYTFTNYDINWVRQAPGQGLEWMGWIYPGDGSTKYNEKFKARVTMTTDKSTSTAYMELRSLRSDDTAVYYCARGYEDAMDYWGQGTTVTVSS
VL: DIKMTQSPSSMYASLGERVIINCKASQDINSYLSWFQQKPGKSPKTLIYRANRLVDGVPSRFSGSGSGQDYSLTISSLEYEDMGIYYCLQYDEFPLTFGAGTKLELK
notes: Hybrid of humanized heavy chain HD and the chimeric light chain (murine VL, human constant region)
Question: Does B9 bind (human CD33 [3])?
Answer: no binding (tested: 0.03 nM to 600 nM (methods))

B10: HEcL (antibody, V domains shown)
VH: QVQLVQSGAEVKKPGASVKVSCKASGYTFTNYDINWVRQAPGQGLEWIGWIYPGDGSTKYNEKFKARVTMTTDTSTSTAYMELRSLRSDDTAVYYCARGYEDAMDYWGQGTTVTVSS
VL: DIKMTQSPSSMYASLGERVIINCKASQDINSYLSWFQQKPGKSPKTLIYRANRLVDGVPSRFSGSGSGQDYSLTISSLEYEDMGIYYCLQYDEFPLTFGAGTKLELK
notes: Hybrid of humanized heavy chain HE and the chimeric light chain (murine VL, human constant region)
Question: Does B10 bind (human CD33 [3])?
Answer: no binding (tested: 0.03 nM to 600 nM (methods))
